Source: article PMC4791424, “The BAH domain of BAHD1 is a histone H3K27me3 reader” (Protein & Cell, 2016)
One block for each molecule: values may come before it. No end group written: not given here. me3 = trimethyl on lysine side chain

Tests used:
[1] = molecular target: T1, BAH domain of human BAHD1 (BAH589-780), wild type (Homo sapiens, UniProt Q8TBE0); test: Isothermal titration calorimetry (ITC), wild type BAH domain; format: binding; conditions: wild type BAHBAHD1
T1 construct: The BAH domain encompassing residues 589-780 of human BAHD1 was cloned in to a; 10xHis-SUMO (N, cleaved yes); made in house; host or cells: E. coli BL21 (DE3)
T1 sequence (Q8TBE0 589-780): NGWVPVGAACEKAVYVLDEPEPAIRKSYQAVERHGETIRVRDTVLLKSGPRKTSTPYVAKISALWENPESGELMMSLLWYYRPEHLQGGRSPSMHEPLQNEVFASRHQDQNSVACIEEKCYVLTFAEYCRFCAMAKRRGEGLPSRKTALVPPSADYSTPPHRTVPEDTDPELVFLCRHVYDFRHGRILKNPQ

[2] = molecular target: BAH_(BAHD1) domain (aa 589–780), as used in ITC and HXMS (human) (UniProt Q8TBE0); test: ITC; BAH_(BAHD1) domain titrated with histone peptides; optimized buffer condition (Tm 39°C in thermal shift assays)
[3] = molecular target: BAH domain of human BAHD1 (residues 589-780), wild type (human) (UniProt Q8TBE0); test: ITC; BAH domain (wild type or mutant) titrated with histone peptide; 15 °C, MicroCal iTC200; 20 mM Tris pH 8.5, 500 mM (NH)2SO4, 5% glycerol; "One Set of Binding Sites" fitting model
[4] = molecular target: BAHD1 BAH domain, 589-780 (UniProt Q8TBE0); test: isothermal titration calorimetry; conditions: reference: H3K27me3 peptide; sites S28
[5] = molecular target: T2, BAH domain of human BAHD1 (residues 589-780), wild type (human, UniProt Q8TBE0 589-780); test: ITC; BAH domain (wild type or mutant) titrated with histone peptide; 15 °C, MicroCal iTC200; 20 mM Tris pH 8.5, 500 mM (NH)2SO4, 5% glycerol; "One Set of Binding Sites" fitting model; conditions: both partners purified
T2 construct: BAHD1 (bromo adjacent homology domain containing protein 1), human, BAH domain, residues 589-780 of the full-length protein (1-780); also called BAH589-780; BAH_(BAHD1); source: E. coli BL21 (DE3), purified (HisTrap, tag cleaved by ULP1, Superdex G75); not shown: 10xHis-SUMO, N-terminal, cleaved
T2 sequence (looked up): T1 sequence (Q8TBE0 589-780)

Molecule: H3K27me3 peptide, H3 frame 19–34 (from UniProt P68431 20-35)
fold reduction of binding against H3 (15-42)K27me3 [2]: 3.9 fold

Molecule: histone H3 (15-42) K27me1 peptide
stoichiometry N [3]: 1

Molecule: H3_(1-15)K9me3 peptide (from UniProt P68431 2-16)
Kd [2]: 2600 µM

Molecule: ARTKQTARKSTGGK(ac)A-NH2 [H31-15K14ac, histone H3 peptide residues 1-15 with acetylated K14]
binding observed by ITC (in words) [1]: no bindings were observed

B1: histone H3 (19-34) K27me3 peptide (peptide)
peptide: QLATKAARKSAPATGG
modifications: trimethyl-lysine at K27 (K(me3))
notes: histone H3, residues 19-34 (A31: as in H3.1/H3.2); source: synthetic peptide (SciLight Biotechnology)
Kd [5]: 61.3 µM

B2: histone H3 (21-32) K27me3 peptide (peptide)
peptide: ATKAARK(me3)SAPAT
notes: histone H3, residues 21-32 (A31: as in H3.1/H3.2); source: synthetic peptide (SciLight Biotechnology)
Kd [5]: 124 µM
stoichiometry N [5]: 1.1

Other lines, results leading:

binding observed by ITC (in words) [1]: no bindings were observed
Molecule: NH2-ARTKQTAR(me2s)KS-COOH [H31-10R8me2s, histone H3 peptide residues 1-10 with R8me2s]

Kd [2]: 2000 µM
Molecule: H3K27me1 peptide

stoichiometry N [3]: 1
Molecule: histone H3 (15-42) K27me3 S28ph peptide

fold reduction of binding against H3 (15-42)K27me3 [2]: 7.8 fold
Molecule: H3K27me3 peptide, H3 frame 21–32 (from UniProt P68431 22-33)

stoichiometry N [3]: 1.1
Molecule: histone H3 (15-42) K27me2 peptide

KD [4]: weaker; reference 15.9
Molecule: histone H3 15-42 H3K27me3S28ph peptide

stoichiometry N [3]: 1
Molecule: histone H3 (15-42) K27me3 peptide
